Source: IntAct's records for PubMed 29892012

B1: Keratin, type I cuticular Ha8 (Homo sapiens), O76015 (parent)
chain: MTSSYSSSSCPLGCTMAPGARNVSVSPIDIGCQPGAEANIAPMCLLANVAHANRVRVGSTPLGRPSLCLPPTCHTACPLPGTCHIPGNIGICGAYGENTLNGHEKETMQFLNDRLANYLEKVRQLEQENAELEATLLERSKCHESTVCPDYQSYFHTIEELQQKILCSKAENARLIVQIDNAKLAADDFRIKLESERSLRQLVEADKCGTQKLLDDATLAKADLEAQQESLKEEQLSLKSNHEQEVKILRSQLGEKLRIELDIEPTIDLNRVLGEMRAQYEAMLETNRQDVEQWFQAQSEGISLQDMSCSEELQCCQSEILELRCTVNALEVERQAQHTLKDCLQNSLCEAEDRFGTELAQMQSLISNVEEQLSEIRADLERQNQEYQVLLDVKTRLENEIATYRNLLESEDCKLPCNPCSTSPSCVTAPCAPRPSCGPCTTCGPTCGASTTGSRF
partner: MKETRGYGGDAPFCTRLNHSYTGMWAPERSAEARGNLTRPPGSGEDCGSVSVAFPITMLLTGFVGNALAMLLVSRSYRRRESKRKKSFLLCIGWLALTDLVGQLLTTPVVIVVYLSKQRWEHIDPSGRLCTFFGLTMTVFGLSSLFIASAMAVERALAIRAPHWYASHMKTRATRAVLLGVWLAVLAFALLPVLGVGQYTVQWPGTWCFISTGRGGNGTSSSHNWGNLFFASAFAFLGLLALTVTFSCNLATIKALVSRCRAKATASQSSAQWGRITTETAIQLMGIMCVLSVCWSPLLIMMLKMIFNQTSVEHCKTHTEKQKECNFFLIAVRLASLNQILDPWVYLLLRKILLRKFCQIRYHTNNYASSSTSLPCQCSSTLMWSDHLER
B2: Keratin, type I cuticular Ha8 (Homo sapiens), O76015 (parent)
chain: B1 chain
partner: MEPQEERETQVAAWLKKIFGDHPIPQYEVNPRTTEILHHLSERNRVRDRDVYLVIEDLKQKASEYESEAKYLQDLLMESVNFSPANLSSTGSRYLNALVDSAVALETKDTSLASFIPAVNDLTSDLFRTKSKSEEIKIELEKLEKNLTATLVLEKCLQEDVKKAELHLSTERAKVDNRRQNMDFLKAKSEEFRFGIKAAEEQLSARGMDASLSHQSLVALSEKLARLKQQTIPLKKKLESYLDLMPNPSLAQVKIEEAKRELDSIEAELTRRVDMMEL
B3: Keratin, type I cuticular Ha8 (Homo sapiens), O76015 (parent)
chain: B1 chain
partner: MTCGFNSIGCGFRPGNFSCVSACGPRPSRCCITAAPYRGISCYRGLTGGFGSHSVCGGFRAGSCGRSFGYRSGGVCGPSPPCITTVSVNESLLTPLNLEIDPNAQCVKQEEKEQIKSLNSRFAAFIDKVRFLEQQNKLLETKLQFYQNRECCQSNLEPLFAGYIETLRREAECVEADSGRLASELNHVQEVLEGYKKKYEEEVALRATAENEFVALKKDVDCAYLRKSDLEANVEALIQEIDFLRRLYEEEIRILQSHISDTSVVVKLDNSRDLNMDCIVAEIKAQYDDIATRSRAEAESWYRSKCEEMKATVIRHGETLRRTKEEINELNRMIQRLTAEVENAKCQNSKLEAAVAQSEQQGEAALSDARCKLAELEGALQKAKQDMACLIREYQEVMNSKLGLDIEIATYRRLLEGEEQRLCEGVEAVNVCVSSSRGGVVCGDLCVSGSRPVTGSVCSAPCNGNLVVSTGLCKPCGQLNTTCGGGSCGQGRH
B4: Keratin, type I cuticular Ha8 (Homo sapiens), O76015 (parent)
chain: B1 chain
partner: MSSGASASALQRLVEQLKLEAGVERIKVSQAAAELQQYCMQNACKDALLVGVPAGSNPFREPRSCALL

Variants of: B1
Conditions: with pe2r3_human PTGER3, P43115

Variant | effect of a mutation on the interaction
MTSSYSSSSCPLGCTMAPGARNVSVSPIDIGCQPGAEANIAPMCLLANVAHANRVRVGSTPLGRPSLCLPPTCHTACPLPGTCHIPGNIGICGAYGENTLNGHEKETMQFLNDRLANYLEKVRQLEQENAELEATLLERSKCHESTVCPDYQSYFHTIEELQQKILCSKAENARLIVQIDNAKLAADDFRIKLESERSLRQLVEADKCGTQKLLDDATLAKADLEAQQESLKEEQLSLKSNHEQEVKILRSQLGEKLRIELDIEPTIDLKRVLGEMRAQYEAMLETNRQDVEQWFQAQSEGISLQDMSCSEELQCCQSEILELRCTVNALEVERQAQHTLKDCLQNSLCEAEDRFGTELAQMQSLISNVEEQLSEIRADLERQNQEYQVLLDVKTRLENEIATYRNLLESEDCKLPCNPCSTSPSCVTAPCAPRPSCGPCTTCGPTCGASTTGSRF [N270K] | with no effect

Variants of: B2
Conditions: with haus1_human HAUS1, Q96CS2

Variant | effect of a mutation on the interaction
MTSSYSSSSCPLGCTMAPGARNVSVSPIDIGCQPGAEANIAPMCLLANVAHANRVRVGSTPLGRPSLCLPPTCHTACPLPGTCHIPGNIGICGAYGENTLNGHEKETMQFLNDRLANYLEKVRQLEQENAELEATLLERSKCHESTVCPDYQSYFHTIEELQQKILCSKAENARLIVQIDNAKLAADDFRIKLESERSLRQLVEADKCGTQKLLDDATLAKADLEAQQESLKEEQLSLKSNHEQEVKILRSQLGEKLRIELDIEPTIDLNRVLGEMRAQYEAMLETNRQDVEQWFQAQSEGISLQAMSCSEELQCCQSEILELRCTVNALEVERQAQHTLKDCLQNSLCEAEDRFGTELAQMQSLISNVEEQLSEIRADLERQNQEYQVLLDVKTRLENEIATYRNLLESEDCKLPCNPCSTSPSCVTAPCAPRPSCGPCTTCGPTCGASTTGSRF [D306A] | with no effect

Variants of: B2
Conditions: with haus1_human HAUS1, Q96CS2
Remark: another data set of the same source

Variant | effect of a mutation on the interaction
MTSSYSSSSCPLGCTMAPGARNVSVSPIDIGCQPGAEANIAPMCLLANVAHANRVRVGSTPLGRPSLCLPPTCHTACPLPGTCHIPGNIGICGAYGENTLNGHEKETMQFLNDRLANYLEKVRQLEQENAELEATLLERSKCHESTVCPDYQSYFHTIEELQQKILCSKAENARLIVQIDNAKLAADDFRIKLESERSLRQLVEADKCGTQKLLDDATLAKADLEAQQESLKEEQLSLKSNHEQEVKILRSQLGEKLRIELDIEPTIDLKRVLGEMRAQYEAMLETNRQDVEQWFQAQSEGISLQDMSCSEELQCCQSEILELRCTVNALEVERQAQHTLKDCLQNSLCEAEDRFGTELAQMQSLISNVEEQLSEIRADLERQNQEYQVLLDVKTRLENEIATYRNLLESEDCKLPCNPCSTSPSCVTAPCAPRPSCGPCTTCGPTCGASTTGSRF [N270K] | with no effect

Variants of: B3
Conditions: with krt83_human KRT83, P78385

Variant | effect of a mutation on the interaction
MTSSYSSSSCPLGCTMAPGARNVSVSPIDIGCQPGAEANIAPMCLLANVAHANRVRVGSTPLGRPSLCLPPTCHTACPLPGTCHIPGNIGICGAYGENTLNGHEKETMQFLNDRLANYLEKVRQLEQENAELEATLLERSKCHESTVCPDYQSYFHTIEELQQKILCSKAENARLIVQIDNAKLAADDFRIKLESERSLRQLVEADKCGTQKLLDDATLAKADLEAQQESLKEEQLSLKSNHEQEVKILRSQLGEKLRIELDIEPTIDLNRVLGEMRAQYEAMLETNRQDVEQWFQAQSEGISLQAMSCSEELQCCQSEILELRCTVNALEVERQAQHTLKDCLQNSLCEAEDRFGTELAQMQSLISNVEEQLSEIRADLERQNQEYQVLLDVKTRLENEIATYRNLLESEDCKLPCNPCSTSPSCVTAPCAPRPSCGPCTTCGPTCGASTTGSRF [D306A] | with no effect

Variants of: B3
Conditions: with krt83_human KRT83, P78385
Remark: another data set of the same source

Variant | effect of a mutation on the interaction
MTSSYSSSSCPLGCTMAPGARNVSVSPIDIGCQPGAEANIAPMCLLANVAHANRVRVGSTPLGRPSLCLPPTCHTACPLPGTCHIPGNIGICGAYGENTLNGHEKETMQFLNDRLANYLEKVRQLEQENAELEATLLERSKCHESTVCPDYQSYFHTIEELQQKILCSKAENARLIVQIDNAKLAADDFRIKLESERSLRQLVEADKCGTQKLLDDATLAKADLEAQQESLKEEQLSLKSNHEQEVKILRSQLGEKLRIELDIEPTIDLKRVLGEMRAQYEAMLETNRQDVEQWFQAQSEGISLQDMSCSEELQCCQSEILELRCTVNALEVERQAQHTLKDCLQNSLCEAEDRFGTELAQMQSLISNVEEQLSEIRADLERQNQEYQVLLDVKTRLENEIATYRNLLESEDCKLPCNPCSTSPSCVTAPCAPRPSCGPCTTCGPTCGASTTGSRF [N270K] | with no effect

Variants of: B4
Conditions: with gbg10_human GNG10, P50151

Variant | effect of a mutation on the interaction
MTSSYSSSSCPLGCTMAPGARNVSVSPIDIGCQPGAEANIAPMCLLANVAHANRVRVGSTPLGRPSLCLPPTCHTACPLPGTCHIPGNIGICGAYGENTLNGHEKETMQFLNDRLANYLEKVRQLEQENAELEATLLERSKCHESTVCPDYQSYFHTIEELQQKILCSKAENARLIVQIDNAKLAADDFRIKLESERSLRQLVEADKCGTQKLLDDATLAKADLEAQQESLKEEQLSLKSNHEQEVKILRSQLGEKLRIELDIEPTIDLNRVLGEMRAQYEAMLETNRQDVEQWFQAQSEGISLQAMSCSEELQCCQSEILELRCTVNALEVERQAQHTLKDCLQNSLCEAEDRFGTELAQMQSLISNVEEQLSEIRADLERQNQEYQVLLDVKTRLENEIATYRNLLESEDCKLPCNPCSTSPSCVTAPCAPRPSCGPCTTCGPTCGASTTGSRF [D306A] | with no effect
